Patent US20100278838A1, “EPHA2 MONOCLONAL ANTIBODIES AND METHODS OF USE THEREOF” (MEDIMMUNE, LLC, priority 2002, published 2010)
“Also recorded” adds a separate entry of the source.

Columns and labels:
[1] = tested on: EphA2 on non-transformed MCF-10A cells; experiment: Immunofluorescence binding to non-transformed cells with or without EGTA; type: cell-based; settings: 4mM EGTA for 20 min
Procedure: (A, B) Non-transformed MCF-10A cells were labeled with EA2 at 4° C. either before (A) or after (B) treatment with EGTA and prior to fixation and immunolabeling with fluorophore-conjugated anti-mouse IgG. (C, D) Non-transformed MCF-10A (C) or transformed MDA-MB-231 (D) cells were labeled with EA2 either before (middle) or after (top) treatment with EGTA. Control cells were incubated with secondary antibody alone (bottom). The amount of EA2-EphA2 binding was measured using flow cytometry.
The epitopes of EphA2 antibodies were characterized. Non-transformed MCF-10A cells or transformed MDA-MB-231 cells were incubated with 10 μg/ml Eph099B-233.152 or EA2 at 4° C. for 30 min. prior to fixation in a 3% formalin solution and immunolabeling with fluorophore-conjugated anti-mouse IgG. […] Treatment of non-transformed MCF-10A cells with 4mM EGTA for 20 min. dissociated the cells.

MCF-7^EphA2 cells = experiment: Soft agar colonization of MCF-7^EphA2 cells; type: cell-based, human; settings: EA2 10 μg/ml, tamoxifen 1 μM
Procedure: FIGS. 11A-11B: EphA2 overexpression decreases tamoxifen sensitivity. (A) 1×10^5 MCF-7 or MCF-7^EphA2 cells were suspended in soft agar in the presence of 1 μM tamoxifen (TAM) and or 1 μM 17β-estradiol and colony formation was evaluated microscopically after 14 days. (B) MCF-7 (circles) or MCF-7^EphA2 cells (squares) were implanted into the mammary fatpad (n=15 mice per group) in the presence of supplemental estrogen. Tamoxifen treatment was initiated 17 days post-implantation. Tumor volume of tamoxifen treated (black circles and squares) and saline treated (white circles and squares) animals was measured at the indicated time.
FIGS. 13A-13C: EphA2 agonistic antibody EA2 decreases malignant growth. MCF-7^EPhA2 cells were incubated in the presence of 3 μg/ml of EA2 for the time indicated prior to sample extraction and western blot analyses with an EphA2-specific antibody (D7). […]
EphA2 overexpression increased malignant growth (FIGS. 8A-8B). […] Colony formation in soft agar was performed as previously described (Zelinski et al., 2001, Cancer Res. 61:2301-6) and scored microscopically, defining clusters of at least three cells as a positive. […] Error bars represent the standard error of the mean of at least three different experiments as determined using Microsoft Excel software.
Sensitivity of MCF-7^EphA2 cells to tamoxifen was measured. […]

[2] = target: T1, EphA2-Ephrin A1-Fc-EA2 complex (Homo sapiens, UniProt P29317); experiment: Displacement of labeled EA2 from EphA2-Ephrin A1-Fc complex by unlabeled competitor; type: binding; settings: biotinylated EA2 10 μg/ml, 30 min
T1 construct: consisting of the extracellular domain of EphA2 linked to human IgG1 constant region
T1 sequence (P29317 24-537 limits assumed): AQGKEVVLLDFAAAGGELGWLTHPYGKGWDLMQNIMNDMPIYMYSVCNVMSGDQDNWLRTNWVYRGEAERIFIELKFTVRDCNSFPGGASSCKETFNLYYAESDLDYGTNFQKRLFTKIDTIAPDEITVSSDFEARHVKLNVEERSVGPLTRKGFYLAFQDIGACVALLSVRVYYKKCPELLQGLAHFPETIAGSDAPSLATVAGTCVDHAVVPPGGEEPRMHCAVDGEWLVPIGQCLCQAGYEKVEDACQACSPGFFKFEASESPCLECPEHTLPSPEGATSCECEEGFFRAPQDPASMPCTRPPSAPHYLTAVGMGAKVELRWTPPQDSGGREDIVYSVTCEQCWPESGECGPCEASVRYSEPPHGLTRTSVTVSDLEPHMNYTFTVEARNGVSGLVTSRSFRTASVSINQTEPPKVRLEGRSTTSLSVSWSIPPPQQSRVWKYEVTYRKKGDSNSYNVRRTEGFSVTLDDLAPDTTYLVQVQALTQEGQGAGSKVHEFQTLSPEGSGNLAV
T1 sequence (P20827 19-182 partner limits assumed): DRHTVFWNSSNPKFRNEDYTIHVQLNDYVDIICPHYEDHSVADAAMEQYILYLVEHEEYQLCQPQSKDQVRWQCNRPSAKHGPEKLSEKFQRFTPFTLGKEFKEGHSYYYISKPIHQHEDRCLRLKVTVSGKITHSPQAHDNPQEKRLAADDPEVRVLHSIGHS
Procedure: FIGS. 18A-18B: EphA2 EA2 epitope is distinct from Eph099B-233.152 epitope and ligand binding site. (A) EphA2-Fc was incubated with and bound to immobilized Ephrin A1-Fc. Labeled Ephrin A1-Fc (black), EA2 (white) or Eph099B-233.152 (grey) was incubated with the EphA2-Ephrin A1-Fc complex and amount of binding was measured. (B) EphA2-Fc was incubated with and bound to immobilized Ephrin A1-Fc. Labeled EA2 was then incubated with the EphA2-Ephrin A1 complex. Unlabeled competitor was incubated with EphA2-Ephrin A1-EA2 complex in the indicated amount. Competitors were Ephrin A1-Fc (black), EA2 (white) or Eph099B-233.152 (grey).
The EphA2-Ephrin A1-Fc complex was prepared as described above. Biotinylated EA2 (10 μg/ml) was then incubated with the complex for 30 min. Unlabeled competitor was incubated with EphA2-Ephrin A1-Fc-EA2 complex in the indicated amount. Unlabeled EA2 could displace the labeled EA2 at concentrations of 100 ng/ml or greater.

Concentration of unlabeled competitor displacing labeled EA2 [2]: ≥ 100 ng/mL
B1: EA2: EphA2 agonistic monoclonal antibody; ATCC deposit no. PTA-4380; co-pending application Ser. No. 10/436,783; VL SEQ ID NO:33, VH SEQ ID NO:37 (antibody, listed as Homo Sapiens, V domains shown)
VH: DVKLVESGGGLVKPGGSLKLSCAASGFTFSSYTMSWVRQTPEKRLEWVATISSGGTYTYYPDSVKGRFTISRDNAKNTLYLQMSSLKSEDTAMYYCTREAIFTYWGQGTLVTVSA
VL: DIKMTQSPSSMYASLGERVTITCKASQDINNYLSWFQQKPGKSPKTLIYRANRLVDGVPSRFSGSGSGQDYSLTISSLEYEDMGIYYCLKYDEFPYTFGGGTKLEIK
Binding to EphA2 on MCF-10A cells with or without EGTA dissociation [1]: bound EphA2 on the EGTA dissociated cells but not the untreated cells; also recorded: preferentially binds EphA2 epitopes exposed by decreasing cell-cell contacts
Sensitivity of MCF-7^EphA2 cells to tamoxifen in soft agar (MCF-7^EphA2 cells): increased the sensitivity of MCF-7^EphA2 cells to tamoxifen
Inhibition / decrease of soft agar colonization, MCF-7^EphA2 cells (MCF-7^EphA2 cells): 19%
